The source of these data is patent US11786578B2, “Modified relaxin polypeptides and their uses” (AMBRX, INC., priority 2010, dated 2023).

Like-named read-outs stand apart in the source and are kept apart here.

One series can be described thus: in vivo. To be noted: for Mean Conc.: male SD rats. The source says: This example evaluates the pharmacokinetic properties of wild-type (WT) Relaxin compound following a single subcutaneous injection in SD rats.
SD Rats were received from Charles River Laboratories (CRL) at approximately […] of age (approximately 280 g at study start). The animals were received having been jugular vein catheterized at CRL. Animals then acclimated for 3 days prior to being placed on study.
Animals received a single subcutaneous injection on day 1 and PK samples were collected over the subsequent 12 hours. Blood samples were taken from animals treated with WT rhRelaxin for analysis of serum concentration according to the following sampling schedule (sampling times are approximate): Day 1: pre-dose, 0.33, 0.66, 1, 1.5, 2, 3, 4, 5, 6, 9 and 12 hours post-dose.
Compound concentrations were measured using a bridging ECLA based on an assay which was developed at Ambrx. Concentrations were calculated using a standard curve generated from the corresponding dosed compound and reported in an excel spreadsheet format (see appendix). Pharmacokinetic parameters were estimated using the modeling program WinNonlin (Pharsight, version 5.1). Noncompartmental analysis for individual animal data with linear-up/log-down trapezoidal integration was used, and concentration data was uniformly weighted.
Concentration versus time curves were evaluated by non-compartmental analysis (Pharsight, version 4.1). N=5 rats per group, terminal HL, terminal half-life; Cmax, maximum serum concentration measured; Tmax, time at which Cmax occurred: AUCinf, area under the concentration-time curve for all serum sample/timepoints extrapolated to infinity; Cl, apparent total serum clearance; Vz, apparent volume of distribution during terminal phase. Numbers are mean with SD in parentheses.

For series [1] the following is noted: IV; cited from earlier work.
For series [2], the target named is T1, human RXFP3 (Homo sapiens, UniProt Q9NSD7).
T1 sequence (Q9NSD7 1-469): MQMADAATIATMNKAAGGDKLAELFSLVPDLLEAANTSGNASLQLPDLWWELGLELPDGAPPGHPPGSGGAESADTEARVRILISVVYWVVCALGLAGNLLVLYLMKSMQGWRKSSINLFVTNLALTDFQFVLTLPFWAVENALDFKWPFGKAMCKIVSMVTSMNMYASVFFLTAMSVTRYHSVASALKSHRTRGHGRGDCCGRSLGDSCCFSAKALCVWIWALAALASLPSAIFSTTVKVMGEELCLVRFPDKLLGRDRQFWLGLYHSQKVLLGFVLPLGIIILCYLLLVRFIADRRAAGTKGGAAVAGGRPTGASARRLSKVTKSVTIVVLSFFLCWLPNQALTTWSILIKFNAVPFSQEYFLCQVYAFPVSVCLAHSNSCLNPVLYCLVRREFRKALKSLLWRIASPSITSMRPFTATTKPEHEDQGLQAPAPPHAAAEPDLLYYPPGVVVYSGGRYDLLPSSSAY
Put plainly: Inhibition of forskolin-induced cAMP in human RXFP3/CHO-K1 stable line. It counts as cell-based. The conditions noted are these: CHO-K1 stable line. An excerpt: (§1) The RXFP cDNAs, RXFP family members, as well as species orthologs, were obtained from commercially available cDNA clones or amplified from tissue RNAs as follows. Human RXFP1: A cDNA clone was obtained from OpenBiosystems (MHS4426-99239031. Human RXFP2: A cDNA clone for transcript variant 1 was obtained from OpenBiosystems (OHS4559-99620528). Cynomolgus monkey RXFP1: The cDNA was cloned out of Mauritian cyno brain RNA by RT-PCR using the following primers: forward: 5′-[…]-3′ (SEQ ID NO: 37); reverse: 5′-[…]-3′ (SEQ ID NO: 38). Dog RXFP1: The cDNA was cloned out of dog brain RNA by RT-PCR using the following primers: forward: 5′-[…]-3′ (SEQ ID NO: 39); reverse: 5′-[…]-3′ (SEQ ID NO: 40). Rat RXFP1: The cDNA was cloned out of Sprague Dawley rat brain RNA by RT-PCR using the following primers: forward: 5′-[…]-3′ (SEQ ID NO: 41); reverse: 5′-[…]-3 (SEQ ID NO: 42)′. Human RXFP3: A Gateway entry clone in vector pDONR221 was obtained from Invitrogen (IOH28381). Human RXFP4: A Gateway entry clone in vector pDONR201 was obtained. Mouse RXFP1: A Gateway entry clone in vector pDONR223 was obtained from OpenBiosystems (OMM4760-101549000). Using standard procedures (Gateway LR recombination), the RXFP entry clones were transferred into expression vector pEF-DEST51 (Invitrogen). In contrast to the all other RXFP clones, human RXFP4 was transferred into pcDNA3.1 (Invitrogen). […]

For series [3], the target named is T2, human RXFP4 (Homo sapiens, UniProt Q8TDU9).
T2 construct: expressed in transfected cells
T2 sequence (Q8TDU9 whole entry): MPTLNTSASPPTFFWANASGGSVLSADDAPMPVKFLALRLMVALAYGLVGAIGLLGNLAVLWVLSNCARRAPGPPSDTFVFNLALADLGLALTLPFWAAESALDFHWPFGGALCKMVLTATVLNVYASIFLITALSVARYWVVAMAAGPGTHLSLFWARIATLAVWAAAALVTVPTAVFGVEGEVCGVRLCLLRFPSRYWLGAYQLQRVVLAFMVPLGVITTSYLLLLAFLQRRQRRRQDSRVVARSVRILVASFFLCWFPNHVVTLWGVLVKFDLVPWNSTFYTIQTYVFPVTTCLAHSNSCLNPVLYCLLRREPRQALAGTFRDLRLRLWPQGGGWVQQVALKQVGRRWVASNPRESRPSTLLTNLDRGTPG
Put plainly: Inhibition of forskolin-induced cAMP in human RXFP4/CHO-K1 stable line. It counts as cell-based. The source says: The RXFP cDNAs, RXFP family members, as well as species orthologs, were obtained from commercially available cDNA clones or amplified from tissue RNAs as follows. Human RXFP1: A cDNA clone was obtained from OpenBiosystems (MHS4426-99239031. Human RXFP2: A cDNA clone for transcript variant 1 was obtained from OpenBiosystems (OHS4559-99620528). Cynomolgus monkey RXFP1: The cDNA was cloned out of Mauritian cyno brain RNA by RT-PCR using the following primers: forward: 5′-[…]-3′ (SEQ ID NO: 37); reverse: 5′-[…]-3′ (SEQ ID NO: 38). Dog RXFP1: The cDNA was cloned out of dog brain RNA by RT-PCR using the following primers: forward: 5′-[…]-3′ (SEQ ID NO: 39); reverse: 5′-[…]-3′ (SEQ ID NO: 40). Rat RXFP1: The cDNA was cloned out of Sprague Dawley rat brain RNA by RT-PCR using the following primers: forward: 5′-[…]-3′ (SEQ ID NO: 41); reverse: 5′-[…]-3 (SEQ ID NO: 42)′. Human RXFP3: A Gateway entry clone in vector pDONR221 was obtained from Invitrogen (IOH28381). Human RXFP4: A Gateway entry clone in vector pDONR201 was obtained. Mouse RXFP1: A Gateway entry clone in vector pDONR223 was obtained from OpenBiosystems (OMM4760-101549000). Using standard procedures (Gateway LR recombination), the RXFP entry clones were transferred into expression vector pEF-DEST51 (Invitrogen). In contrast to the all other RXFP clones, human RXFP4 was transferred into pcDNA3.1 (Invitrogen). For each construct, the RXFP cDNA, as well as its proper insertion into the expression vector, was verified by DNA sequencing.
CHO-K1 cells (ATCC #CRL-9618) were prepared for stable line generation by propagating at 37° C. with 5% CO2 in F-12 plus GlutaMAX-I medium (GIBCO #31765) supplemented with 10% fetal bovine heat-inactivated serum (Invitrogen #16140), and 1× Antibiotic-Antimycotic (GIBCO #15240-096). CHO-K1 cells were transfected with 12 μg of the appropriate expression construct plasmid using the FuGENE® 6 reagent (Roche #11814443 001) and the protocol provided by the manufacturer. One day post-transfection cells were replated into medium containing 10 μg of Blasticidin S HCl per mL (GIBCO #A11139-02). […]

For series [4], the system named is primary human cardiac fibroblasts (NHCF-V). The conditions noted are these: 1 nM.
Description: NHCF-V cells were isolated from the ventricle of normal, adult heart tissue. Cells stained positive for smooth muscle α-actin and expressed ≥90% collagen I and ≤10% Von Willebrand factor VIII. Cells at passages 3 through 6 were used for the real-time quantitative reverse transcription-polymerase chain reaction (qRT-PCR) studies. Cells were cultured in FGM™-3 BulletKit™ (Cat. #: CC-4526, Lonza) containing 10% FBS complete medium. At confluence, cells were split and cultured in 6-well plates at a density of 150,000/well for 24 hr in complete medium.
Alter treatment, cells in 6-well plates were harvested or total RN A extraction and qRT-PCR analysis. Total RNA was extracted using the RNeasy Mini Kit (Cat. #: 74106, Qiagen) according to the manufacturer's protocols including the on-column removal of genomic cDNA. Real-time qRT-PCR was performed in a two-step manner; cDNA synthesis and real-time detection were carried out in a PTC-100 Thermal Cycler (MJ Research) and an ABI Prism 7700 Sequence Detection System (Applied Biosystems), respectively. TaqMan Universal PCR Master Mix (Applied Biosystems) was used in subsequent PCR reactions according to the manufacturer's protocols. All qRT-PCR reactions were performed in duplicate. […] Data were analyzed for significance by two-way ANOVA followed by a Bonferroni's multiple comparison test using GraphPad Prism Software, version 5.0.
Series [5] concerns the target T1, human RXFP3. To be noted: literature value; read-out: EC50 value reported in the literature, human RXFP3; cited from earlier work.
The target in series [6] is T2, human RXFP4. To be noted: literature value; read-out: EC50 value reported in the literature, human RXFP4; cited from earlier work.
The target in series [7] is T3, human RXFP2 (Homo sapiens, UniProt Q8WXD0). Put plainly: cAMP assay in human RXFP2/CHO-K1 stable line. The conditions noted are these: CHO-K1 stable line. It counts as cell-based.
T3 sequence (Q8WXD0 whole entry): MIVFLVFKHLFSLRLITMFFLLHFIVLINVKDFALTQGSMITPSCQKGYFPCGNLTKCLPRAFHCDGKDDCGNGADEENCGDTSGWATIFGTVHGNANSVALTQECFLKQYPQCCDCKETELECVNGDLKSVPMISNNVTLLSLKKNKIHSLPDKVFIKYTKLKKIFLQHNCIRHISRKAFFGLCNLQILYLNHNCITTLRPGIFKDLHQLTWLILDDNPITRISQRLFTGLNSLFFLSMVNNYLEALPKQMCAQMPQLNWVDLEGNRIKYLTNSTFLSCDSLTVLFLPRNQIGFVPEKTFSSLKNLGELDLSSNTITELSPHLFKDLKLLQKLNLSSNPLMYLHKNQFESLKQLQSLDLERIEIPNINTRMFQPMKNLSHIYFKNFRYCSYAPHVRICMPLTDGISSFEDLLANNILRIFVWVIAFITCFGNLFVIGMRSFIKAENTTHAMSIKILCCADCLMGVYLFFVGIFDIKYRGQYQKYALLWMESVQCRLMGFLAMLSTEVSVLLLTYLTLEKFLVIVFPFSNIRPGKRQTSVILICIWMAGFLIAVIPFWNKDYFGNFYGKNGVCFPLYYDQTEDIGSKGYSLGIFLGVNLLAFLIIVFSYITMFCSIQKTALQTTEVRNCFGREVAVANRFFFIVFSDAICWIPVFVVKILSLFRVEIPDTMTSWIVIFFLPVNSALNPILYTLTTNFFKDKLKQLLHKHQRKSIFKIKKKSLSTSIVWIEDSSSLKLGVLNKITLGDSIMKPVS
Text: as §1
On the technique in general: cAMP levels reflect the balance of adenylyl cyclase and phosphodiesterase activity.

The target of series [8] is T3, human RXFP2. To be noted: literature value; read-out: EC50 value reported in the literature, human RXFP2; cited from earlier work.
Where [9] appears, read: 0.5 mg/kg SC, SD rats, mean (SD).
[10] abbreviates: Sprague-Dawley, rat, serum, sc, 0.5 mg/kg.
The mark [11] stands for this setting: CHO-K1 stable line, inhibition of forskolin-induced cAMP.

As usually defined, the AUC(0-inf) is total exposure, with the tail of the curve extrapolated. Low readings indicate less exposure, high ones more exposure. Usually Cmax stands for the highest concentration seen after dosing. For orientation: MRT means the average time that molecules of a dose stay in the body. A word on the Tmax: it is the time at which the peak concentration occurs. Broadly, the half-life is how long it takes for the measured level to halve. A lower half-life goes with fast loss. In the case of `CC[C@H](C)[C@@H]1NC(=O)[C@H](C)NC(=O)[C@H]([C@@H](C)CC)NC(=O)[C@H](CCC(N)=O)NC(=O)[C@H](C)NC(=O)[C@H](CCCNC(=N)N)NC(=O)[C@H](C(C)C)NC(=O)[C@H](CC(C)C)NC(=O)[C@H](CCC(=O)O)NC(=O)[C@H](CCCNC(=N)N)NC(=O)CNC(=O)[C@@H](NC(=O)[C@H](CC(C)C)NC(=O)[C@H](CCCCN)NC(=O)[C@@H](NC(=O)[C@@H](NC(=O)[C@H](CCC(=O)O)NC(=O)[C@H](CCC(=O)O)NC(=O)[C@H](CCSC)NC(=O)[C@H](Cc2c[nH]c3ccccc23)NC(=O)[C@H](CO)NC(=O)[C@@H](N)CC(=O)O)C(C)C)[C@@H](C)CC)CSSC[C@@H]2NC(=O)[C@@H](NC(=O)[C@H](CCCCN)NC(=O)[C@H](CC(N)=O)NC(=O)[C@H](C)NC(=O)[C@H](CC(C)C)NC(=O)[C@H](C)NC(=O)[C@H](CO)NC(=O)[C@H](Cc3ccc(O)cc3)NC(=O)[C@H](CC(C)C)NC(=O)[C@@H](N)CCC(N)=O)CSSC[C@H](NC(=O)CNC(=O)[C@H](C(C)C)NC(=O)[C@H](Cc3c[nH]cn3)NC2=O)C(=O)N[C@@H]([C@@H](C)O)C(=O)N[C@@H](CCCCN)C(=O)N[C@@H](CCCNC(=N)N)C(=O)N[C@@H](CO)C(=O)N[C@@H](CC(C)C)C(=O)N[C@@H](C)C(=O)N[C@@H](CCCNC(=N)N)C(=O)N[C@@H](Cc2ccccc2)C(=O)N[C@H](C(=O)O)CSSC[C@@H](C(=O)NCC(=O)N[C@@H](CCSC)C(=O)N[C@@H](CO)C(=O)N[C@H](C(=O)N[C@@H](Cc2c[nH]c3ccccc23)C(=O)N[C@@H](CO)C(=O)O)[C@@H](C)O)NC1=O` [RLX-D-WT], in the series “in vivo” (setting [9]), the “CL (mL/hr)” value was 1006 (185) mL/hr and the “Vz (mL/kg)” value was 1159 (284) mL/kg. In addition, in “in vivo” (setting [10]), the AUC(0-inf) was 509 ng·h/mL, the Cmax came out at 258 ng/mL, the MRT was 93.6 min and the Tmax was determined as 30 min. In the series “in vivo” (male, SD, rat, serum, sc, 0.5 mg/kg), this molecule had a half-life of 48 min. Besides, in “in vivo” (serum, 0.5 mg/kg SC, 6 hr), the “Mean Conc.” value was “BQL”. In “in vivo” (serum, 0.5 mg/kg SC, 9 hr), the “Mean Conc.” value is given as “BQL”. Also, in “in vivo” (serum, 0.5 mg/kg SC, 12 hr), the “Mean Conc.” value is given as “BQL”. Also, in the series “in vivo” (serum, 0.5 mg/kg SC, pre-dose (PD)), the “Mean Conc.” value is listed as “BQL”. Also, the “half-life of intravenously administrated Relaxin 2 in humans” value in series [1] was “less than 10 minutes”.
For the molecule `CC[C@H](C)[C@@H]1NC(=O)[C@H](C)NC(=O)[C@H]([C@@H](C)CC)NC(=O)[C@H](CCC(N)=O)NC(=O)[C@H](C)NC(=O)[C@H](CCCNC(=N)N)NC(=O)[C@H](C(C)C)NC(=O)[C@H](CC(C)C)NC(=O)[C@H](CCC(=O)O)NC(=O)[C@H](CCCNC(=N)N)NC(=O)CNC(=O)[C@@H](NC(=O)[C@H](CC(C)C)NC(=O)[C@H](CCCCN)NC(=O)[C@@H](NC(=O)[C@@H](NC(=O)[C@H](CCC(=O)O)NC(=O)[C@H](CCC(=O)O)NC(=O)[C@H](CCSC)NC(=O)[C@H](Cc2c[nH]c3ccccc23)NC(=O)[C@H](CO)NC(=O)[C@@H](N)CC(=O)O)C(C)C)[C@@H](C)CC)CSSC[C@@H]2NC(=O)[C@@H](NC(=O)[C@H](CCCCN)NC(=O)[C@H](CC(N)=O)NC(=O)[C@H](C)NC(=O)[C@H](CC(C)C)NC(=O)[C@H](C)NC(=O)[C@H](CO)NC(=O)[C@H](Cc3ccc(O)cc3)NC(=O)[C@H](CC(C)C)NC(=O)[C@@H](N)CCC(N)=O)CSSC[C@H](NC(=O)CNC(=O)[C@H](C(C)C)NC(=O)[C@H](Cc3c[nH]cn3)NC2=O)C(=O)N[C@@H]([C@@H](C)O)C(=O)N[C@@H](CCCCN)C(=O)N[C@@H](CCCNC(=N)N)C(=O)N[C@@H](CO)C(=O)N[C@@H](CC(C)C)C(=O)N[C@@H](C)C(=O)N[C@@H](CCCNC(=N)N)C(=O)N[C@@H](Cc2ccccc2)C(=O)N[C@H](C(=O)O)CSSC[C@@H](C(=O)NCC(=O)N[C@@H](CCSC)C(=O)N[C@@H](CO)C(=O)N[C@H](C(=O)N[C@@H](Cc2c[nH]c3ccccc23)C(=O)N[C@@H](CO)C(=O)O)[C@@H](C)O)NC1=O` [WT-RLX], the “cAMP Assay EC50, Human RXFP3” value on human RXFP3 [2] was “essentially inactive”. Also, the “cAMP Assay EC50, Human RXFP4” value at human RXFP4 [3] (setting [11]) is “essentially inactive”. Also, in [4], the “Maximal inhibition of collagen type I expression vs TGF-β only treatment” value is no less than 70%.
One may read the EC50 as the concentration needed to bring the measured effect to its halfway point. For “H3-RLX: H3-relaxin, the endogenous ligand for RXFP3 and RXFP4 receptors, positive control”, the EC50 was 0.6 nM with human RXFP3 [2], 2.8 ± 1.5 nM with human RXFP4 [3] (setting [11]), 0.4 nM in the series with human RXFP3 [5] and 1.1 nM in the series with human RXFP4 [6]. The “Maximal inhibition of forskolin-induced cAMP, human RXFP4 (partial agonist activity)” value with human RXFP4 [3] is roughly 40%.

B1: INSL3: endogenous ligand for RXFP2 (insulin like 3 protein), R&D Systems (protein, UniProt P51460 21-55; P51460 106-131, looked up)
Insulin-like 3 B chain: LGPAPTPEMREKLCGHHFVRALVRVCGGPRWSTEA
Insulin-like 3 A chain: AAATNPARYCCLSGCTQQDLLTLCPY
On to B1, for which the values for the EC50 with human RXFP2 [7] and in the series with human RXFP2 [8] were 0.46 ± 0.04 nM and 0.58 nM, respectively.
